Source: the supplement of paper PMC5998384

How the values were obtained:
[1] = test system: HeLa Kyoto; experiment: solubility in G1/S (NP-40 vs SDS abundance) (log2 ratio); higher = more soluble; details: cell cycle stage: G1/S
[2] = test system: HeLa Kyoto; experiment: melting temperature (median over replicates), in situ; higher = more thermally stable
[3] = test system: HeLa Kyoto; experiment: thermal stability score vs G1/S (z-score of summed log2 fold changes over temperatures); higher = more thermally stable than in G1/S
[4] = test system: HeLa Kyoto; experiment: solubility change mitosis vs G1/S (difference of NP-40 vs SDS log2 ratios) (log2 ratio difference); higher = more soluble in mitosis
[5] = cell cycle stage: early G1 (4.5 h after nocodazole release)
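Wherever melting temperature (median over replicates), in situ is given: HeLa Kyoto cells synchronized by double thymidine or nocodazole block, proteins quantified by TMT10plex mass spectrometry, three independent biological replicates.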
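Wherever solubility change mitosis vs G1/S (difference of NP-40 vs SDS log2 ratios) is given: synchronized HeLa Kyoto cells (double thymidine block for G1/S, nocodazole release for mitosis), protein amounts in NP-40 versus SDS lysates quantified by mass spectrometry, three biological replicates.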
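Wherever solubility in G1/S (NP-40 vs SDS abundance) is given: HeLa Kyoto cells arrested at G1/S by double thymidine block, proteins quantified by TMT10plex mass spectrometry in mild NP-40 versus SDS extracts, three biological replicates.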
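Wherever thermal stability score vs G1/S (z-score of summed log2 fold changes over temperatures) is given: synchronized HeLa Kyoto cells, proteins quantified by TMT10plex mass spectrometry, three biological replicates, mitosis taken 0.5 h after nocodazole release, G1/S directly after double thymidine block.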

| Substance | solubility in G1/S (log2) [1] | melting temperature ([2]; cell cycle stage: G1/S) [°C] | melting temperature ([2]; cell cycle stage: mitosis) [°C] | thermal stability score [3, 5] | thermal stability score ([3]; cell cycle stage: mitosis) | solubility change mitosis (log2) [4] |
| --- | --- | --- | --- | --- | --- | --- |
| MNVVFAVKQYISKMIEDSGPGMKVLLMDKETTGIVSMVYTQSEILQKEVYLFERIDSQNREIMKHLKAICFLRPTKENVDYIIQELRRPKYTIYFIYFSNVISKSDVKSLAEADEQEVVAEVQEFYGDYIAVNPHLFSLNILGCCQGRNWDPAQLSRTTQGLTALLLSLKKCPMIRYQLSSEAAKRLAECVKQVITKEYELFEFRRTEVPPLLLILDRCDDAITPLLNQWTYQAMVHELLGINNNRIDLSRVPGISKDLREVVLSAENDEFYANNMYLNFAEIGSNIKNLMEDFQKKKPKEQQKLESIADMKAFVENYPQFKKMSGTVSKHVTVVGELSRLVSERNLLEVSEVEQELACQNDHSSALQNIKRLLQNPKVTEFDAARLVMLYALHYERHSSNSLPGLMMDLRNKGVSEKYRKLVSAVVEYGGKRVRGSDLFSPKDAVAITKQFLKGLKGVENVYTQHQPFLHETLDHLIKGRLKENLYPYLGPSTLRDRPQDIIVFVIGGATYEEALTVYNLNRTTPGVRIVLGGTTVHNTKSFLEEVLASGLHSRSKESSQVTSRSASRR [VPS45] | 0.0246 | 49.6 | 49.9 | 0.581 | 1.21 | -0.166 |
| MNWELLLWLLVLCALLLLLVQLLRFLRADGDLTLLWAEWQGRRPEWELTDMVVWVTGASSGIGEELAYQLSKLGVSLVLSARRVHELERVKRRCLENGNLKEKDILVLPLDLTDTGSHEAATKAVLQEFGRIDILVNNGGMSQRSLCMDTSLDVYRKLIELNYLGTVSLTKCVLPHMIERKQGKIVTVNSILGIISVPLSIGYCASKHALRGFFNGLRTELATYPGIIVSNICPGPVQSNIVENSLAGEVTKTIGNNGDQSHKMTTSRCVRLMLISMANDLKEVWISEQPFLLVTYLWQYMPTWAWWITNKMGKKRIENFKSGVDADSSYFKIFKTKHD [DHRS7] | -0.297 | 56.6 | 56.6 | -1.54 | -1.34 | -0.0912 |
| MNYDSQQPPLPPLPYAGCRRASGFPALGRGGTVPVGVWGGAGQGREGRSWGEGPRGPGLGRRDLSSADPAVLGATMESRCYGCAVKFTLFKKEYGCKNCGRAFCSGCLSFSAAVPRTGNTQQKVCKQCHEVLTRGSSANASKWSPPQNYKKRVAALEAKQKPSTSQSQGLTRQDQMIAERLARLRQENKPKLVPSQAEIEARLAALKDERQGSIPSTQEMEARLAALQGRVLPSQTPQPAHHTPDTRTQAQQTQDLLTQLAAEVAIDESWKGGGPAASLQNDLNQGGPGSTNSKRQANWSLEEEKSRLLAEAALELREENTRQERILALAKRLAMLRGQDPERVTLQDYRLPDSDDDEDEETAIQRVLQQLTEEASLDEASGFNIPAEQASRPWTQPRGAEPEAQDVDPRPEAEEEELPWCCICNEDATLRCAGCDGDLFCARCFREGHDAFELKEHQTSAYSPPRAGQEH [ZFYVE19] | 0.428 | 54.2 | 52.9 | -2.39 | -1.86 | -0.237 |
| MON2 | -0.103 | 49.8 | 50.1 | -0.177 | 0.256 | -0.108 |
| MPAERKKPASMEEKDSLPNNKEKDCSERRTVSSKERPKDDIKLTAKKEVSKAPEDKKKRLEDDKRKKEDKERKKKDEEKVKAEEESKKKEEEEKKKHQEEERKKQEEQAKRQQEEEAAAQMKEKEESIQLHQEAWERHHLRKELRSKNQNAPDSRPEENFFSRLDSSLKKNTAFVKKLKTITEQQRDSLSHDFNGLNLSKYIAEAVASIVEAKLKISDVNCAVHLCSLFHQRYADFAPSLLQVWKKHFEARKEEKTPNITKLRTDLRFIAELTIVGIFTDKEGLSLIYEQLKNIINADRESHTHVSVVISFCRHCGDDIAGLVPRKVKSAAEKFNLSFPPSEIISPEKQQPFQNLLKEYFTSLTKHLKRDHRELQNTERQNRRILHSKGELSEDRHKQYEEFAMSYQKLLANSQSLADLLDENMPDLPQDKPTPEEHGPGIDIFTPGKPGEYDLEGGIWEDEDARNFYENLIDLKAFVPAILFKDNEKSCQNKESNKDDTKEAKESKENKEVSSPDDLELELENLEINDDTLELEGGDEAEDLTKKLLDEQEQEDEEASTGSHLKLIVDAFLQQLPNCVNRDLIDKAAMDFCMNMNTKANRKKLVRALFIVPRQRLDLLPFYARLVATLHPCMSDVAEDLCSMLRGDFRFHVRKKDQINIETKNKTVRFIGELTKFKMFTKNDTLHCLKMLLSDFSHHHIEMACTLLETCGRFLFRSPESHLRTSVLLEQMMRKKQAMHLDARYVTMVENAYYYCNPPPAEKTVKKKRPPLQEYVRKLLYKDLSKVTTEKVLRQMRKLPWQDQEVKDYVICCMINIWNVKYNSIHCVANLLAGLVLYQEDVGIHVVDGVLEDIRLGMEVNQPKFNQRRISSAKFLGELYNYRMVESAVIFRTLYSFTSFGVNPDGSPSSLDPPEHLFRIRLVCTILDTCGQYFDRGSSKRKLDCFLVYFQRYVWWKKSLEVWTKDHPFPIDIDYMISDTLELLRPKIKLCNSLEESIRQVQDLEREFLIKLGLVNDKDSKDSMTEGENLEEDEEEEEGGAETEEQSGNESEVNEPEEEEGSDNDDDEGEEEEEENTDYLTDSNKENETDEENTEVMIKGGGLKHVPCVEDEDFIQALDKMMLENLQQRSGESVKVHQLDVAIPLHLKSQLRKGPPLGGGEGEAESADTMPFVMLTRKGNKQQFKILNVPMSSQLAANHWNQQQAEQEERMRMKKLTLDINERQEQEDYQEMLQSLAQRPAPANTNRERRPRYQHPKGAPNADLIFKTGGRRR [UPF2] | -0.245 | 49.6 | 49.7 | -0.603 | -0.161 | -0.109 |
| MPAPIRLRELIRTIRTARTQAEEREMIQKECAAIRSSFREEDNTYRCRNVAKLLYMHMLGYPAHFGQLECLKLIASQKFTDKRIGYLGAMLLLDERQDVHLLMTNCIKNDLNHSTQFVQGLALCTLGCMGSSEMCRDLAGEVEKLLKTSNSYLRKKAALCAVHVIRKVPELMEMFLPATKNLLNEKNHGVLHTSVVLLTEMCERSPDMLAHFRKLVPQLVRILKNLIMSGYSPEHDVSGISDPFLQVRILRLLRILGRNDDDSSEAMNDILAQVATNTETSKNVGNAILYETVLTIMDIKSESGLRVLAINILGRFLLNNDKNIRYVALTSLLKTVQTDHNAVQRHRSTIVDCLKDLDVSIKRRAMELSFALVNGNNIRGMMKELLYFLDSCEPEFKADCASGIFLAAEKYAPSKRWHIDTIMRVLTTAGSYVRDDAVPNLIQLITNSVEMHAYTVQRLYKAILGDYSQQPLVQVAAWCIGEYGDLLVSGQCEEEEPIQVTEDEVLDILESVLISNMSTSVTRGYALTAIMKLSTRFTCTVNRIKKVVSIYGSSIDVELQQRAVEYNALFKKYDHMRSALLERMPVMEKVTTNGPTEIVQTNGETEPAPLETKPPPSGPQPTSQANDLLDLLGGNDITPVIPTAPTSKPSSAGGELLDLLGDINLTGAPAAAPAPASVPQISQPPFLLDGLSSQPLFNDIAAGIPSITAYSKNGLKIEFTFERSNTNPSVTVITIQASNSTELDMTDFVFQAAVPKTFQLQLLSPSSSIVPAFNTGTITQVIKVLNPQKQQLRMRIKLTYNHKGSAMQDLAEVNNFPPQSWQ [AP1G1] | -0.225 | 50.3 | 50.1 | -1.48 | 0.274 | -0.192 |
| MPAVSKGDGMRGLAVFISDIRNCKSKEAEIKRINKELANIRSKFKGDKALDGYSKKKYVCKLLFIFLLGHDIDFGHMEAVNLLSSNRYTEKQIGYLFISVLVNSNSELIRLINNAIKNDLASRNPTFMGLALHCIASVGSREMAEAFAGEIPKVLVAGDTMDSVKQSAALCLLRLYRTSPDLVPMGDWTSRVVHLLNDQHLGVVTAATSLITTLAQKNPEEFKTSVSLAVSRLSRIVTSASTDLQDYTYYFVPAPWLSVKLLRLLQCYPPPDPAVRGRLTECLETILNKAQEPPKSKKVQHSNAKNAVLFEAISLIIHHDSEPNLLVRACNQLGQFLQHRETNLRYLALESMCTLASSEFSHEAVKTHIETVINALKTERDVSVRQRAVDLLYAMCDRSNAPQIVAEMLSYLETADYSIREEIVLKVAILAEKYAVDYTWYVDTILNLIRIAGDYVSEEVWYRVIQIVINRDDVQGYAAKTVFEALQAPACHENLVKVGGYILGEFGNLIAGDPRSSPLIQFHLLHSKFHLCSVPTRALLLSTYIKFVNLFPEVKPTIQDVLRSDSQLRNADVELQQRAVEYLRLSTVASTDILATVLEEMPPFPERESSILAKLKKKKGPSTVTDLEDTKRDRSVDVNGGPEPAPASTSAVSTPSPSADLLGLGAAPPAPAGPPPSSGGSGLLVDVFSDSASVVAPLAPGSEDNFARFVCKNNGVLFENQLLQIGLKSEFRQNLGRMFIFYGNKTSTQFLNFTPTLICSDDLQPNLNLQTKPVDPTVEGGAQVQQVVNIECVSDFTEAPVLNIQFRYGGTFQNVSVQLPITLNKFFQPTEMASQDFFQRWKQLSNPQQEVQNIFKAKHPMDTEVTKAKIIGFGSALLEEVDPNPANFVGAGIIHTKTTQIGCLLRLEPNLQAQMYRLTLRTSKEAVSQRLCELLSAQF [AP2A2] | -0.202 | 52.2 | 51.7 | -0.19 | -0.622 | -0.139 |
